Results as given in patent publication US7662404B2, “Transdermal delivery system for dried particulate or lyophilized peptides and polypeptides” (TransPharma Medical Ltd., priority 2002, dated 2010).
Where two headings read alike, the source gives them in different places.

Experiments:
[1] = Plasma sCT after SC injection or printed patch with ViaDerm in pigs (Example 10); assay type: in vivo; settings: for bioavailability: compared to SC
Method: Pigs (males, 10-12 kg, Large white) were treated as follows:
Group 1: 1 ml of salmon calcitonin containing 16.7 μg peptide (Miacalcin, Novartis Pharma Ag, Basle, Switzerland) was injected subcutaneously (S.C) to each pig (total 3 pigs).
Group 2: Each pig underwent 2 ViaDerm applications on one site on the back (150 micro-channels per cm^2). Patches of 400 μg sCT/patch of 1.4 cm^2 were placed on the treated area (total 3 pigs).
Group 3: Each pig underwent 2 ViaDerm applications on one site on the back (150 micro-channels per cm^2). Patches of 200 μg sCT/patch of 1.4 cm^2 were placed on the treated area (total 3 pigs).
In order to determine sCT concentrations in pig plasma an ELISA assay was performed (Diagnostic Systems Laboratories, Inc. Webster, Tex., USA).

plasma Ca++ = test: In vivo bioactivity of sCT: plasma Ca++ concentrations in pigs (Example 10)
Method: In vivo bioactivity of sCT was evaluated by measuring plasma Ca^++ concentrations. […] Transdermal administration from the printed patches yielded a ˜20% decrease in Ca^++ concentrations, regardless of sCT dose. Thus, sCT delivered transdermally remained intact and biologically active.

blood glucose = test: Bioactivity of insulin in diabetic rats: blood glucose after printed patches or SC (Example 6); assay type: in vivo
Method: (§1) ViaDerm apparatus was used. The density of the microelectrode array used in these studies was 100 microelectrodes/cm^2. The device was applied twice on each location, so the density of the micro channels was 200/cm^2. The skin was treated with an applied voltage of 330V, frequency of 100 kHz, two bursts, 700 microsecond burst length, and no current limitation.
Male rats (300-325, Sprague Dawley, Harlan laboratories Ltd., Israel) were deprived of food and received water as libitum 48 hr prior to patch applications. Streptozotocin (55 mg/kg in citric buffer, 0.1 M, pH 4.5) was injected intraperitonally (IP) to the rats 24 hr prior to patch applications in order to induce diabetes. […] The diabetic rats were premedicated with IP injections of 10% ketamin/2% xylazine solution at a ratio of 70:30, 1 ml/kg. Anesthesia was maintained with either isofluorane or halothane gas. The abdominal skin hair was shaved carefully, and was cleaned with isopropyl alcohol. After 30 min, transepidermal water loss measurements (TEWL, Dermalab Cortex Technology, Hadsund, Denmark) were performed to check skin integrity. Skin micro-channeling was performed by the use of the ViaDerm instrument with the conditions described above. TEWL was then measured again to control the operation. The treated skin was covered with Lispro (HUMALOG®) or Regular (HUMULIN®R) 1.5 IU insulin-printed patches. SC injections of 0.4 IU served as a positive control. Blood samples were withdrawn from the tip of the rat's tail at 0, 2, 4, and 6 hr post application, and glucose level was determined.

IGF-1 = IGF-1 in the serum of hypophysectomized rats after rhGH (Example 3); assay type: in vivo
Text: GH is produced by the pituitary gland (hypophysis) and acts in several ways and on several targets. A distinctive role attributed to GH is the induction of IGF-1 production by liver cells (hepatocytes). As GH is the main trigger for the production of IGF-1, the activity of GH can be detected by measuring IGF-1 levels in the blood. GH levels in the blood can be directly analyzed as well.
Results 1. rhGH in the Serum

[2] = rhGH in serum after printed patches and ViaDerm, hypophysectomized rats (Example 4); assay type: in vivo
Method: The materials and methods applied in this example were similar to those in EXAMPLE 3 except from the following points: • a) The animals were treated with ELTROXIN™ and hydrocortisone only until 10 days before initiating the treatments. • b) The test article was a printed patch of rhGH in two doses: 0.15 mg/patch and 0.5 mg/patch. The patches were composed of a backing liner (DOW BLF2080™, The Dow Chemical Company, MI, USA) on which drops of GENOTROPIN® were evenly placed. All the patches contained 144 drops over an area 1.4×1.4 cm^2. The printed patch was attached to the skin by a fixing patch, 2 cm×2 cm with 300 μm thick (wet) glue (DURO-TAK™ 3872516; National Starch & Chemical Pty Ltd, NSW, Australia) on the backing liner. • c) The experimental setup included 2 groups of 3 rats each: • Group 1: Treated with ViaDerm+one 0.15 mg printed patch. • Group 2: Treated with ViaDerm+one 0.5 mg printed patch. Results 1. Printed Patches

[3] = Bioavailability of rhGH printed patches with ViaDerm in normal rats (Example 5); assay type: in vivo
Method: as §1, with “ViaDerm micro-channeling” for “ViaDerm”
(§2) Male Guinea pigs (500-800 grams, Dunkin Hartley, Harlan laboratories Ltd., Israel) and Male rats (350-400, Sprague Dawley, Harlan laboratories Ltd., Israel), were premedicated with IP injections of 10% ketamin/2% xylazine solution at a ratio of 70:30, 1 ml/kg. Anesthesia was maintained with either isofluorane or halothane gas. The abdominal skin hair was shaved carefully, and was cleaned with isopropyl alcohol. After 30 min, transepidermal water loss, measurements (TEWL, Dermalab Cortex Technology, Hadsund, Denmark) were performed to check skin integrity. Skin micro channeling was performed by the use of the ViaDerm instrument with the conditions described above. TEWL was then measured again to control the operation. The treated skin was covered with the rhGH patches and blood samples were withdrawn from a preinserted carotid cannula in guinea pig or from the rat's tail at predetermined times post application. The serum was separated by centrifugation and analyzed for rhGH by Elisa kit (DSL-10-1900, Diagnostic Systems Laboratories, Inc. Webster, Tex., USA). The transdermal delivery of rhGH was compared to that of subcutaneous hGH delivery.

[4] = Bioavailability of rhGH printed patches with ViaDerm in guinea pigs (Example 5); assay type: in vivo
Method: as §1, with “ViaDerm micro-channeling” for “ViaDerm”
as §2

[5] = rat, in vivo
Text: • Animals: Rats, males, 250 gr, Sprague Dawley, hypophysectomized at Harlan USA labs. […] This fraction was spread on a hypoallergenic clear medical tape (Kendall Curity®, Emergency Medical Products Inc., USA) in doses specified below, and placed directly onto the skin as a transdermal patch. […]
The transdermal groups (1 and 2) received a treatment including: Shaving, drying, baseline Trans Epidermal Water Loss measurement (TEWL; DERMALAB® Cortex Technology, Hadsund, Denmark), two ViaDerm applications of 200 micropores/cm^2 (placebo for Group 2), second TEWL measurement and patch application. At the end of the study all animals were sacrificed by an IV overdose of sodium-pentobarbital (140 mg/kg). • ViaDerm parameters: burst length—500 μsec, starting amplitude—250 V, number of bursts—5 and applications per site—2 (200 micropores/cm^2). • Blood sampling: Blood samples (0.5 ml/rat) were withdrawn at 6 time points, t=0, 2, 4, 6, 12 and 24 hours, from the tail end of anesthetized rats (20 mg/rat ketamine, intramuscular). • Serum analysis: rhGH in the serum was detected using an Elisa kit (DSL-10-1900; Diagnostic Systems Laboratories, TX, USA) specific for rhGH. […] IGF-1 was detected according to RIA protocol (Endocrine, Vol. 16, no. 1, 1-6, October 2001). […]

[6] = diabetic rats, 1.5 IU insulin-printed patch on ViaDerm treated skin
[7] = diabetic rats, 1.5 IU insulin-printed patch on ViaDerm treated skin, from about 400 mg/dl
[8] = hyperglycemic rats, transdermal
[9] = Group 1: ViaDerm + ~0.8 mg rhGH powder patch
[10] = Group 3: SC injection 150 μg/rat
[11] = Group 1: ViaDerm + 0.15 mg printed patch
[12] = Group 2: ViaDerm + 0.5 mg printed patch
[13] = Transdermal printed patch, dose 75 μg
[14] = Transdermal printed patch, dose 150 μg
[15] = Transdermal printed patch, dose 300 μg
[16] = Transdermal printed patch, dose 450 μg
[17] = Transdermal printed patch, dose 50 (mg)
[18] = Transdermal printed patch, dose 150 (mg)
[19] = Transdermal printed patch, dose 300 (mg)
[20] = Transdermal printed patch, dose 400 (mg)

`CC(C)C[C@H](NC(=O)[C@H](CCCCN)NC(=O)CNC(=O)[C@H](CC(C)C)NC(=O)[C@@H](NC(=O)[C@@H]1CSSC[C@H](N)C(=O)N[C@@H](CO)C(=O)N[C@@H](CC(N)=O)C(=O)N[C@@H](CC(C)C)C(=O)N[C@@H](CO)C(=O)N[C@@H]([C@@H](C)O)C(=O)N1)C(C)C)C(=O)N[C@@H](CO)C(=O)N[C@@H](CCC(N)=O)C(=O)N[C@@H](CCC(=O)O)C(=O)N[C@@H](CC(C)C)C(=O)N[C@@H](Cc1c[nH]cn1)C(=O)N[C@@H](CCCCN)C(=O)N[C@@H](CC(C)C)C(=O)N[C@@H](CCC(N)=O)C(=O)N[C@H](C(=O)N[C@@H](Cc1ccc(O)cc1)C(=O)N1CCC[C@H]1C(=O)N[C@@H](CCCNC(=N)N)C(=O)N[C@H](C(=O)N[C@@H](CC(N)=O)C(=O)N[C@H](C(=O)NCC(=O)N[C@@H](CO)C(=O)NCC(=O)N[C@H](C(=O)N1CCC[C@H]1C(N)=O)[C@@H](C)O)[C@@H](C)O)[C@@H](C)O)[C@@H](C)O` [sCT] gave an Amount delivered ([1]; Printed patch 400 μg) of 31.92 µg, a bioavailability ([1]; Printed patch 400 μg) of 7.98% and an AUC ([1]; S.C. 16.7 μg, neck) of 206.377 ± 63.647 pg·min/mL. For the same molecule, the Cmax ([1]; male, Large white, pig, plasma, other: transdermal printed patch on ViaDerm-treated skin, 200 ug, patch 200 μg, ViaDerm, back) was 2.33 ± 0.673 ng/mL, the bioavailability ([1]; male, Large white, pig, plasma, other: transdermal printed patch on ViaDerm-treated skin, 200 ug, patch 200 μg, read-out: bioavailability) was 10% and the Cmax ([1]; male, Large white, pig, plasma, other: transdermal printed patch on ViaDerm-treated skin, 400 ug, Printed patch 400 μg, ViaDerm, back) was 2.82 ± 1.74 ng/mL. For the same molecule, the bioavailability ([1]; male, Large white, pig, plasma, other: transdermal printed patch on ViaDerm-treated skin, 400 ug, Printed patch 400 μg, read-out: bioavailability) was 8%, the Cmax ([1]; male, Large white, pig, plasma, sc, 16.7 ug, S.C. 16.7 μg, neck) was 2.21 ± 1.12 ng/mL and the Amount delivered ([1]; patch 200 μg) was 20.12 µg. For the same molecule, the bioavailability ([1]; patch 200 μg) was 10.06%, the “decrease of plasma Ca++ concentrations from time 0” value (plasma Ca++; SC administration 16.7 μg) was about 25% and the “decrease in plasma Ca++ concentrations” value (plasma Ca++; transdermal from printed patches, regardless of sCT dose (200 or 400 μg)) was about 20%.

In the case of “HUMALOG®: human recombinant insulin Lispro, 100 IU/ml (Lilly), used in 1.5 IU printed patches”, the “blood glucose level after 6 hr” value (blood glucose; [6]) is reported as “about 30 mg/dl” and the “blood glucose level three hours following application” value (blood glucose; [7]) is reported as “about 70 mg/dl”.

With “HUMULIN®: human recombinant insulin, regular, 100 IU/ml (Lilly), used in 1.5 IU printed patches” the “blood glucose level after 6 hr” value (blood glucose; [6]) was “about 30 mg/dl” and the “blood glucose level three hours following application” value (blood glucose; [7]) was “about 70 mg/dl”.

For “insulin: insulin given as SC injection of 0.4 IU, positive control; product not specified”, the “blood glucose level after 6 hr” value (blood glucose; diabetic rats, SC injection 0.4 IU) was “about 200 mg/dl”, the “blood glucose level three hours following administration” value (blood glucose; diabetic rats, SC injection 0.4 IU, from about 400 mg/dl) was “about 70 mg/dl” and the “period of normal glucose level” value (blood glucose; [8]) was 4 to 6 h. The “time to normal glucose level (100 mg/dl to 200 mg/dl glucose)” value (blood glucose; [8]) was 1 to 3 h.

In the case of “rhGH: recombinant human growth hormone, 22 kDa polypeptide; GENOTROPIN (Pharmacia & Upjohn) with mannitol”, the “IGF-1 in the serum” value (IGF-1; [9]) is reported as “elevation of IGF-1”, the “time of maximal average IGF-1 concentration” value (IGF-1; [9]) is reported as 12 h and the “IGF-1 in the serum” value (IGF-1; Group 2: rhGH patch on intact skin) is reported as “low level of IGF-1”. The “IGF-1 in the serum” value (IGF-1; [10]) was “anticipated elevation of IGF-1”, the “time of peak IGF-1 concentration” value (IGF-1; [10]) was 12 h and the AUC absolute value [2, 11] was 1594 ng·h/mL. For the same molecule, the “time of peak rhGH serum level” value [2, 11] was 4 h, the AUC absolute value [2, 12] was 6563 ng·h/mL and the “time of peak rhGH serum level” value [2, 12] was 6 h. The AUC ([3]; SC, dose 150 μg) was 489 ng·h/mL, the “Bioavailability (% of SC)” value ([3]; SC, dose 150 μg (reference)) was 100 % of SC and the AUC [3, 13] was 184 ng·h/mL. For the same molecule, the “Bioavailability (% of SC)” value [3, 13] was 75.3 % of SC, the AUC [3, 14] was 376 ng·h/mL and the “Bioavailability (% of SC)” value [3, 14] was 76.9 % of SC. The AUC [3, 15] was 727 ng·h/mL, the “Bioavailability (% of SC)” value [3, 15] was 74.3 % of SC and the AUC [3, 16] was 884 ng·h/mL. The “Bioavailability (% of SC)” value [3, 16] was 60.3 % of SC, the “Bioavailability (% of SC)” value ([4]; SC, dose 50 (mg printed; reference)) was 100 % of SC and the AUC ([4]; SC, dose 50 (mg)) was 176 ng·h/mL. The AUC [4, 17] was 57 ng·h/mL, the “Bioavailability (% of SC)” value [4, 17] was 32.4 % of SC and the AUC [4, 18] was 175 ng·h/mL. The “Bioavailability (% of SC)” value [4, 18] was 33.1 % of SC, the AUC [4, 19] was 362 ng·h/mL and the “Bioavailability (% of SC)” value [4, 19] was 34.3 % of SC. The AUC [4, 20] was 404 ng·h/mL, the “Bioavailability (% of SC)” value [4, 20] was 28.7 % of SC and the “bioavailability compared to the SC group” value [5] was 33.8%. The “AUC normalized for 0.1 mg rhGH” value ([5]; sc) was 1128 µg·h/mL.
